Consider two substances from patent US11834499.

The target in assay [1] is CD3 on Jurkat cells (UniProt P07766). Briefly: flow cytometry, Jurkat cells, anti-His secondary; A01 Jurkat-2o alone 1,501.76. (In general: Flow cytometry measures light scatter and fluorescence of single cells or particles in a stream.)
The target in assay [2] is CD16A (UniProt P08637). The assay is described as follows: flow cytometry, 2ug/reaction; Jurkat-Lucia-NFAT-CD16 cells; anti-his 2o only 18,863.83.
Assay [3] deals with human Claudin-18.2 (CLDN18.2) (human). Briefly: flow cytometry, 2ug/reaction, trypsin to detach cells; HUPT4 cells; anti-his 2o only 12,730.43; same construct on ARK2 cells 37,777.38 (2o only 35,124.48).
For assay [4], the target named is CD16A (UniProt P08637). Briefly: flow cytometry; Jurkat Lucia CD16A; only anti-his 2o AF647 652513 7,290.88.
The target of assay [5] is human Claudin-18.2 (CLDN18.2) (human). The assay is described as follows: flow cytometry; HUPT4 (CLDN18.2+); only anti-his 2o AF647 652513 12,046.33; same construct on ARK2 (CLDN18.2-) 39,787.16 (2o only 36,416.11).

CD16A, sequence (P08637 17-254 limits assumed, form in doubt): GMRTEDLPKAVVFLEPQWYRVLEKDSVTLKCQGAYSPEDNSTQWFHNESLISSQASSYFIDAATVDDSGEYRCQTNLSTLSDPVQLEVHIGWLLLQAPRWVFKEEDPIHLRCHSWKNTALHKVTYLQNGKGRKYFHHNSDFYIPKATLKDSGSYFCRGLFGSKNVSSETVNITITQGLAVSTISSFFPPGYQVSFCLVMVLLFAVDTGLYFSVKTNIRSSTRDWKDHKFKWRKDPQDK
CD3 on Jurkat cells, sequence (P07766 23-207 limits assumed): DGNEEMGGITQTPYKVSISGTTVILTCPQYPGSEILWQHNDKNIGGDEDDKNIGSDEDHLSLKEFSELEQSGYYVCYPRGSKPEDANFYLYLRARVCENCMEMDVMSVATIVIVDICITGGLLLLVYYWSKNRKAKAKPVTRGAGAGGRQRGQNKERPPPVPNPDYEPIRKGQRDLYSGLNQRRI

Substance Blincyto-His tag (bispecific antibody) gave an FL4-H value printed beside the legend in assay [1] of 16300.
“AFM13 (CD16A-CD30 BiTE) his tagged (bispecific antibody)”: the flow cytometry signal was 76500 in assay [2], 15700 in assay [3], 23500 in assay [4] and 8940 in assay [5].
